The labels stand for the following.
T1: His-tagged full-length YTHDF2 (human, UniProt Q9Y5A9 1-579)
T1 sequence (looked up): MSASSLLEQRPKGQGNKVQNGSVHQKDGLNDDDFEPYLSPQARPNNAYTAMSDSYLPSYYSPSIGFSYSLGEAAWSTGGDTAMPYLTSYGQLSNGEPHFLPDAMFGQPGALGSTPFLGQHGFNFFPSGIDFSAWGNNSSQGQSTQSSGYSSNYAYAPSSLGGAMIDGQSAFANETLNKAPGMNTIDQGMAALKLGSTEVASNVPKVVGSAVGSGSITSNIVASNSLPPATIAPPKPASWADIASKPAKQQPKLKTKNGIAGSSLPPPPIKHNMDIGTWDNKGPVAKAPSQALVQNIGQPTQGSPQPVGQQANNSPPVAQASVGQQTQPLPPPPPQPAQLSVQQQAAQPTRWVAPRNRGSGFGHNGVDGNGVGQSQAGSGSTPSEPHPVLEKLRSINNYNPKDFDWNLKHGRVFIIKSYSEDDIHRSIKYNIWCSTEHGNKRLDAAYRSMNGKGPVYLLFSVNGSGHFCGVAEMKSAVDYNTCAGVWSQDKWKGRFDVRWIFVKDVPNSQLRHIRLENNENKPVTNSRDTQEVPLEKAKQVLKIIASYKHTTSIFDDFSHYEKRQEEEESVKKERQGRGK

B1: CNOT1 SH domain-GST fusion protein (aa 1842-2376) (domain or fragment, human, UniProt A5YKK6 1842-2376, looked up)
chain: YDDPPGLREKAEYLLREWVNLYHSAAAGRDSTKAFSAFVGQMHQQGILKTDDLITRFFRLCTEMCVEISYRAQAEQQHNPAANPTMIRAKCYHNLDAFVRLIALLVKHSGEATNTVTKINLLNKVLGIVVGVLLQDHDVRQSEFQQLPYHRIFIMLLLELNAPEHVLETINFQTLTAFCNTFHILRPTKAPGFVYAWLELISHRIFIARMLAHTPQQKGWPMYAQLLIDLFKYLAPFLRNVELTKPMQILYKGTLRVLLVLLHDFPEFLCDYHYGFCDVIPPNCIQLRNLILSAFPRNMRLPDPFTPNLKVDMLSEINIAPRILTNFTGVMPPQFKKDLDSYLKTRSPVTFLSDLRSNLQVSNEPGNRYNLQLINALVLYVGTQAIAHIHNKGSTPSMSTITHSAHMDIFQNLAVDLDTEGRYLFLNAIANQLRYPNSHTHYFSCTMLYLFAEANTEAIQEQITRVLLERLIVNRPHPWGLLITFIELIKNPAFKFWNHEFVHCAPEIEKLFQSVAQCCMGQKQAQQVMEGTGAS
B2: His-tagged YTHDF2-N (YTHDF2-1-400) (domain or fragment, human, UniProt Q9Y5A9 1-400, looked up)
chain: MSASSLLEQRPKGQGNKVQNGSVHQKDGLNDDDFEPYLSPQARPNNAYTAMSDSYLPSYYSPSIGFSYSLGEAAWSTGGDTAMPYLTSYGQLSNGEPHFLPDAMFGQPGALGSTPFLGQHGFNFFPSGIDFSAWGNNSSQGQSTQSSGYSSNYAYAPSSLGGAMIDGQSAFANETLNKAPGMNTIDQGMAALKLGSTEVASNVPKVVGSAVGSGSITSNIVASNSLPPATIAPPKPASWADIASKPAKQQPKLKTKNGIAGSSLPPPPIKHNMDIGTWDNKGPVAKAPSQALVQNIGQPTQGSPQPVGQQANNSPPVAQASVGQQTQPLPPPPPQPAQLSVQQQAAQPTRWVAPRNRGSGFGHNGVDGNGVGQSQAGSGSTPSEPHPVLEKLRSINNYNP
notes: YTHDF2, human, N-terminal region, aa 1-400; Cloned into pET-28a; The YTHDF2-N of the tethering plasmids is another construct (aa 1-389); source: E. coli, purified recombinant
B3: His-tagged YTHDF2-101-200 (domain or fragment, human, UniProt Q9Y5A9 101-200, looked up)
chain: PDAMFGQPGALGSTPFLGQHGFNFFPSGIDFSAWGNNSSQGQSTQSSGYSSNYAYAPSSLGGAMIDGQSAFANETLNKAPGMNTIDQGMAALKLGSTEVA
notes: Cloned into pET-28a; source: E. coli, purified recombinant

Assay [1] addresses T1, His-tagged full-length YTHDF2. Put plainly: pull-down; GST pull-down: 40 pmol YTHDF2 fragment with 40 pmol GST or GST-CNOT1 (aa 1842-2376) on glutathione Sepharose-4B; 20 mM HEPES pH 7.4, 200 mM NaCl, 0.1% Tween-20; 2 h at 4 °C; SDS-PAGE and Coomassie Blue staining. The note with it: both partners purified.
Assay [2] concerns the target B1. The assay is described as above. The note with it: both partners purified.

Take B1: the binding result in assay [1] is recorded as “binds”.
B2: in assay [2], the binding result is recorded as “binds”.
The same measure, in the same setting: to B3 belongs “binds”.

For the origin of these results see publication PMC5007331, “YTHDF2 destabilizes m^6A-containing RNA through direct recruitment of the CCR4–NOT deadenylase complex” (Nature Communications, 2016).
